From PMC8080847 come the findings set out here.

Assay [1] addresses EGFR on Cos7 cells (African green monkey (endogenous in Cos7)). The assay is described as follows: single-molecule diffusional mobility shift assay (smDIMSA); living Cos7 cells treated with EGF, no pertuzumab (mock); EGFR bait labelled with Fab-Alexa Fluor 647, tracked before and after the anti-ErbB2 antibody.
The target is the same in assay [2]. Nature of the assay: single-molecule diffusional mobility shift assay (smDIMSA); living Cos7 cells treated with EGF and pertuzumab; EGFR bait labelled with Fab-Alexa Fluor 647, tracked before and after the anti-ErbB2 antibody.
Assay [3] addresses mEos3.2-CD86 (CD86 truncated at R227) (UniProt P42081). Nature of the assay: single-molecule diffusional mobility shift assay (smDIMSA); homodimer format on living HeLa cells: receptor partially labelled with the Alexa Fluor 647 Fab (20 nM, 15 min) of a monoclonal antibody, tracked before and after 15 min with the same full-length antibody; 37 °C; peak shift averaged from multiple cells.

Turning to ErbB2 on Cos7 cells (receptor), the diffusion coefficient shift (EGF-treated cells) in assay [1] is 12%. Moreover, the diffusion coefficient shift (EGF-treated cells, with pertuzumab) in assay [2] turned out to be 6%.
On to “mEos3.2-CD86 (CD86 truncated at R227) (from UniProt P42081 24-227) (receptor)”, for which the peak shift of the diffusion coefficient in assay [3] is less than 1%.
